In the experiment the target is reconstituted silk fibroin (RSF) labelled with DyLight 650 (Bombyx mori) (UniProt P05790). Nature of the experiment: MST.

pKd: −log10 of the molar value.

The pKd is the negative decadic logarithm of the Kd, by convention in mol/L. A high value points to a low Kd. Regarding “wild-type (WT) α-synuclein (from UniProt P37840 1-140) (natural protein)”, the pKd is 7.62.

Values taken from doi:10.1101/2025.10.25.684501.
